From patent US20040086503A1 come the findings set out here.

Assay [1] has as its target extracellular domain of IGF-IR (human) (UniProt P08069). In words: SPR (BIAcore 3000), Protocol 2, essentially as Fagerstam et al. (In SPR one partner is held on a chip, and binding of the other changes the refractive index at the surface.)
Assay [2] shares this target. In words: SPR (BIAcore 3000), Protocol 1: antibody captured on protein A, IGF-IR ECD injected.

B1: anti-IGF-IR antibody 2.13.2 (antibody, V domains shown)
VH: EVQLLESGGGLVQPGGSLRLSCTASGFTFSSYAMNWVRQAPGKGLEWVSAISGSGGTTFYADSVKGRFTISRDNSRTTLYLQMNSLRAEDTAVYYCAKDLGWSDSYYYYYGMDVWGQGTTVTVSS
VL: DIQMTQFPSSLSASVGDRVTITCRASQGIRNDLGWYQQKPGKAPKRLIYAASRLHRGVPSRFSGSGSGTEFTLTISSLQPEDFATYYCLQHNSYPCSFGQGTKLEIKR
Broadly, the Kd is the equilibrium constant for the complex coming apart. Higher therefore signals weaker binding. B1: the results for the Kd in assay [1] and in assay [2] were 1.53 nM and 3.5 nM, respectively.

B2: anti-IGF-IR antibody 2.14.3 (antibody, human IgG2, V domains shown)
VH: GPGLVKPSETLSLTCTVSGGSISNYYWSWIRQPAGKGLEWIGRIYTSGSPNYNPSLKSRVTMSVDTSKNQFSLKLNSVTAADTAVYYCAVTIFGVVIIFDYWGQGTLVTVSS
VL: SSLSASVGDRVTFTCRASQDIRRDLGWYQQKPGKAPKRLIYAASRLQSGVPSRFSGSGSGTEFTLTISSLQPEDFATYYCLQHNNYPRTFGQGTEVEIIR
In assay [2], B2 had a Kd of 0.641 nM.

B3: anti-IGF-IR antibody 2.12.1 (antibody, V domains shown)
VH: QAQLVESGGGLVKPGGSLRLSCAASGFTFSDYYMSWIRQAPGKGLEWVSYISSSGSTRDYADSVKGRFTISRDNAKNSLYLQMNSLRAEDTAVYYCVRDGVETTFYYYYYGMDVWGQGTTVTVSS
VL: DIQMTQSPSSLSASVGDRVTFTCRASQDIRRDLGWYQQKPGKAPKRLIYAASRLQSGVPSRFSGSGSGTEFTLTISSLQPEDFATYYCLQHNNYPRTFGQGTEVEIIR
Molecule B3 had a Kd in assay [2] of 7.37 nM.

B4: anti-IGF-IR antibody 4.17.3 (antibody, human IgG2, V domains shown)
VH: PGLVKPSETLSLTCTVSGGSISSYYWSWIRQPPGKGLEWIGYIYYSGSTNYNPSLKSRVTISVDTSKNQFSLKLSSVTAADTAVYYCARTYSSSFYYYGMDVWGQGTTVTVSS
VL: GDRVTITCRASQSISTFLNWYQQKPGKAPKLLIHVASSLQGGVPSRFSGSGSGTDFTLTISSLQPEDFATYYCQQSYNAPLTFGGGTKVEIK
Regarding B4, in assay [2], the Kd worked out at 13 nM.
